Test: soluble fraction after stress (log2 fold change); higher = more stays soluble; pooled small domains, quantitative proteomics
Settings: stress: 75 degC
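Also: 20 min heating vs room temperature control held 20 min.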

Row | Sequence | soluble fraction (log2)
1 | HMDINLSENLVRLRHAKKLTQEQLADFLGVTKASVSKWETRQSLPDILLLPRLAAFYGVTVDELIGYEP | -1.81
2 | HMDISKTLGKNPLLIIDNIEYRGKTLDEITAMTGVKRFENIDIYGSEEAMKTYGEKAKDGVIIAYTT | 0.0575
3 | HMDITGIGIKKRIKAIIDSEDKKNPLSDTQIVEILKNEGLEISRRTVAKYRSDLQIPSSSKRKK | 0.143
4 | HMDIVEIYVGEEDGERIDSYLAQELNNVSRSYVQGLIKNQLITVNGNHVKPKHIVKEGEHIIVNIPPPKV | -0.0948
5 | HMDIVENSMPNVVGLELNRAKELMTQLGFTNVRYEPTESSRPENEVVYQSVDKDETLDVSSEIIIQYSSGV | 0.0628
6 | HMDKEKLQEKLLQIFEAEPQKKFQVQDLVKVLDMEGAGQFKFVVQALADLEHNKQIKLSEDDTFSLIVKE | -0.173
7 | HMDKENVLQLQKDLLRLSVNALEKRYYQFSDILLLKYILPLVPKEISIDDQSRLRSLLSGIN | -0.538
8 | HMDKEPTHLHTFRLIKEGKSSEEIAEIRNITLGTVNTHLAKLIAVGELTIEQVISKHRLDYVMEAIKNSK | 0.176
9 | HMDKKIVGVNAGKVWQALNEVTEISIVELAEKLNLSVESTALAAGWLAREDQISIERKNGTIELQRKN | -0.91
10 | HMDKNNLLIIYRTNSEGTPYAFSVTPSAKSLDALHKDAKEMLPFLEKSMNNFFSIQIWERAEYLKY | -0.785
11 | HMDKPGMRLNQFIAHSGISSRREADNLIKAGLVQVNGKIIVEMGFRVMPTDIVKFNNETIAS | -2.08
12 | HMDKPIVFLEDTKAHKSSDLQSPVYMTVPKGTIAFVIAEKGDWSQVYAGRVLDRNLASQWVRRGFS | 0.267
13 | HMDKSLDFASIKSVEIATGRKFGWHALKKWSKSNSSEIKTIPDPNFGEVKTYHKDAWLAVYNINLSPILD | -0.376
14 | HMDKSPMIGTAEYEGVLYWRQTKDNGATWEWITDKNGDKMPVSGPAPAVGIDKDGYWTVNGESTGVLAKD | 0.225
15 | HMDKVSYALGLGIGRQLTDMGAKDLNIDDFAQAIKDVLAGGEVKLSDAEAQTIVRNFFDEQEKKQRA | -0.029
16 | HMDLANLQNGQTLPLQRDVEVISIPFGKTISLSEDSVVSIMQAKGSSVSVAYEGRLYLIEGSNLDALGLEP | -1.1
17 | HMDLANRSLDRGITILESLARNGASSLADLHRDSGIAKSTIRRLLGTLIQHRLVRRSVADGLYRVTIPLPA | -1.42
18 | HMDLDIQNYNLDEILELFKVSYDFDETELKKAHKMYLMTHPDKSNLNPNIFLFFVQAYDILRKLYEFR | -0.691
19 | HMDLDIRDDIYRANIPNDYKLQQMQNNIDYDKVLTGYYNNRPEANVIANRTLQLANDVYNRD | 0.00307
20 | HMDLDLNIDNYNFDDLLNLFGLKMKFSEDDLKKAKRSVLMTHPDKSGLDKQYFMFFTKAYKMLSQIYYFR | 0.572
21 | HMDLDPNKPAIPIAYPRVLLNIMAEKGFSRTEVLAGSGLADSVFDKPDHRITPAQFLFILMNSFYLS | -0.67
22 | HMDLFLVYQFIRRLATPFTEWKAHELGIIDDKGVQLKKRRDFTTREEKDAYGIFDIMITKLKRLIEKV | 0.0817
23 | HMDLFSAVVHHIVGQQISTKAQATIWKRMRDEFGVVDAAAVLGAGVEKLQSFGMTFRKAEYITDFARKIE | -2.61
24 | HMDLGLTDDQRLVYGLLSPTVPRSSGELLGMVDFGRSKLSRILKELIELGQVFTVGVGRGLKYKRG | -0.482
25 | HMDLGTHMRLIVPTGMRVDHIVYESNGKNISVDHDRSISVRWNGEVVSIDVSPLPSRPDFDVLIYMSPK | -0.134
26 | HMDLLAESLTRREAEVAALAARGLTNRAIAELFGLSVRTAETHLHRAMGKLGANRREDLLLHADRLDPG | -1.41

Row | Sequence | soluble fraction (log2)
27 | HMDLLESLSAREREVVHLASRGLVNKLIARELGITERTVKAHLSSAFEKLHIKDRVHLALLVNGI | -2.46
28 | HMDLLKANNLSQINVDKLTDEEILKYSQQLKQSGLTESQAEQIAIARGMPATEIAKLKQRLISLTNMQ | 0.118
29 | HMDLLVWRVADEDAGERIDKLVVDSLDDVSRTAVQQWIKDGLVTVNGKTVKPNYKAAAGDEVAVSVPEPE | 0.239
30 | HMDLMKKTLTKEMLLIDFMKQQFPDSSTNKLRKMLSSGRVKINNLITHKAKSQLKLGDIFELANKPHD | -1.31
31 | HMDLPGIVTETDRQRADLAARIGAAKVEAVLAGGARSVEADEDFDADTRRELHQFLTRMARRAFLEER | 0.1
32 | HMDLPSSETLKVKLNLAKAYVTIEDFGAARRALDEVLSVSSLVDPDLTIQAKSLLAEIDQRS | -0.352
33 | HMDLQAAWLQTVRHLLAHTEDVGDRFAEEARRIHYGEEPHRGIRGQATPEERLALREEGIETMSIPV | -0.919
34 | HMDLQHQLTPRLKRLRLSGILETLEVRNQQAIAEKWSYVEFLTRLAEDEVERRDHKQLTLRLR | -0.529
35 | HMDLSYPFTTVTTDNVNMRRSASSSSVVLERIDKGDSITVLGTSGNYYKVSYNDRTGYVLKQYVDVSAATT | -0.254
36 | HMDLTPEEQMDLYRLLDSLPTEERTYLILHYFEERSFPEMAEILSMPEAKLKSRFYRILHRLRAHL | -2.74
37 | HMDLTSDANLKEAKDQILNLLNDGKRHHVTEINKILLPPVQVQEALRFLIHEETVRVDASFLF | -0.104
38 | HMDLVESYDLKIIYTSELINLLIDSSRLEEALNLFKDLKDEIDDVENLGFSAKNNLDYMESKLLHLG | -1.94
39 | HMDLYIILGLERSATLSDVRRAYRRLARKYHPGINPGDRNSASVFTRVSEAYQVLSDPEQRRRYDSR | -2.84
40 | HMDMDRRALLLALINDRYHASVAEFARAINKAPAQVHQWLSGNRALGNAGARDIEIRLNLAQGYFDH | -2.16
41 | HMDMQMPIMNGLEFLERINLTLDDNFSIIVLTGKIEDKSIEKSFELGINAYLRKPFNIYALLGIVRQN | -0.135
42 | HMDMSDFEVVRDMYLTGKVWNAGDIVEAKGITGEVVRKGTNYLSFVDKNGKVHKAWLHEIEL | -0.197
43 | HMDNAILQELYDYYKEDPSLSQSELIISMLTRIQEAVGYVSKDVQEEVARLAGVNRGYVAAIIKNLPHL | -1.17
44 | HMDNEYDKVYQAALSKLEGYPRSSITTAVIKDVVAQTIKYFEIKNFGYEDTIINQLQSAFTVKSSS | -0.0883
45 | HMDNLSESQIKAYSSILSRTHEISDLAENKDYLAFSLWIANILRDPQSVREETAKRVFSALHTNTDFK | -0.984
46 | HMDNMFMPPVNGWDVRQALQKLQNEMGLQVKMEYSPSETITEGYVISYTPIDGMKVEKGDEVTLVISTGPE | -0.0359
47 | HMDNMTEMQKAVTALIEKSGGSIDNLSVIYDHLKKKYPSFDLKDYGYSRFSSFLRSMENIMVRGNAVTLRS | -0.211
48 | HMDNPPDRAEIEQMLKDAGLTPEADAMAALSDLARTLDPGDFRQTLEKITLYKLGDSTPIGLDDIAAGAP | 0.0465
49 | HMDNQSIVRINDGDGAWRQRLGEHFGHLPRDRKRGEIVLQVDAADWRWLQTQGYAPRFDAALSAQLQTTL | -0.479
50 | HMDNVLGKSGKVIFVNEEINSYGRAFIPGHGEWNIRTKSDQNIHINDGIKVIERDGITLVVEL | -1.26
51 | HMDNVQLRNFAIKATEASIIYLDQEQRNFFWYNNNKKLMTVPFDENPYSAFAAYLKTDEGSEVYKAIEKKF | -1.97
52 | HMDNWAALLSEREVQVSRLVANGASNKEIADHLAITERTVKAHLTAVFEKLGVRDRLQLSLRVNGL | -3.94

Row | Sequence | soluble fraction (log2)
53 | HMDPALSPAEQKIWDLLAAGETHIDDLVRASGLPVATVNSALVMMEMKEVISQVAAKTYRRNRRN | -1.3
54 | HMDPEARRRAILNAAIDVIVEKGAAALTHRAVAARAGVSLGSTTKYFSSIEDLRENAMDALVREMD | -0.496
55 | HMDPEEQIQSREIWEAVERALDGMQEKGRRVVIALLEGQTQLEVSRAAGISQPLISYYLKSFRTKVRTELG | -0.73
56 | HMDPEIADAVNTIKKYLESHYSEVITRKKIEELVHLNQDHINREFKKQTGYTLMEYVQHYRILMAKKMLRV | -0.576
57 | HMDPEQLKIAINTKMPFGKYSGRPLLLLPEPYLVWFKQQGFPDSKLGSQLAMMYEVKLNGLEQMLMPLL | -0.665
58 | HMDPERLDQLQNPDPAVRREAIIALGRSKDLAALPELAKVYKNDPVPELRELARQAGRYIQQENRP | 0.00398
59 | HMDPFVILGISKDSSQSEILEAYKTKRAYYQEHVFDEGDQGAQAARMLGQLDDAYQQAMELSHE | 0.0281
60 | HMDPKISWESDEKLSANIGHYENSIKPLMGNKYLIELSQLKDKIESHPWVARATIKRIFWNKIHIQLESHD | -0.0642
61 | HMDPKWSHVRRLLDDENPIVRKALTEELIRSPEEGLAFLEQVIREPDHLLAKHAHNLLSELGWV | 0.192
62 | HMDPLGHVIKKKRLQLGMTLRDLAAKAGVHHATIDRIETDQFKVVDPSTLVKIAEALHLDQLYLLSLN | -0.666
63 | HMDPLPDEVQEVIDMVDGFKAMDELSEADKADVKAAYDAYNALSAEHKAMVPEHIVTFLNRAYDKLFD | 0.159
64 | HMDPPVDLTPREQQVLSRIALGMSDKAIAAELGVSHQTVRNHVARIYAKIKVHSRSQAIVWAREKGIP | -2.36
65 | HMDPSKMKIDELEIATRTATALADGGIKSVAGLIRKSASALKELDGVGDKAIAEITEALEKLGLELKG | 0.106
66 | HMDPSWVPVFNNLRDAILSHQLLPGTRLAEDELSNIYGLGRTVIRSALGALTHEGLLTHIPNRGVHVAKP | -1.16
67 | HMDPTIAAIRKKLKNWTIVEVHMTREELEQAVIDGKVDVFLSSAGFYRRLVRFGARDLATAMSPAYPD | -0.68
68 | HMDPTYYFNLYPNPSKDEVSLFTNFTGKINIEILDLAGKSILSDNPISTISLVSLKEGLYLVKVKS | -0.178
69 | HMDPYLSGLLQKLAETDKKISFTRLRSEDLDGESREAIYEFIEKYSGRFGVRWLLNEFGLSPSVYYNYLHS | -0.727
70 | HMDQDLGFLINKYFELGKDYNTLVEIYEKIKEYIASIDKKMLEYTKNFTIEQLKKWLDDGTINNIILTLG | -0.122
71 | HMDQEDAYMQVRQVFDTLLVSELSKRIFAWRFFEGKSFAEWPGAESQKFLYDTFNRILLIISAKIRRKNA | -0.0464
72 | HMDQHERQQLLIHIAGGEREALAELYQRTRSAVYGLALSYLKNAHDAQDLTRDVYVQVWDRA | -0.0158
73 | HMDQQTKFKTALAALAASAETKDRKLTKADVKEFLEDMDLGEEQMKLVYAYLASKHIHVEGAE | ≥ 1.04
74 | HMDQSIDADIINLNFSKNIIKIEENVYYKNNNAKVNADKIEINIETKKLKISMNEQEDEVEIFAK | 0.552
75 | HMDQTIFFGQQKAINNLSTDAGLSATELDEYLKKRYKRPLYQLTQAEGAEIIKGFQDGALSRSSILDYTK | 0.0434
76 | HMDRKFFFNEQYEDYINSDLKVKFMNDSGSKKSFQGELTKVTPSDLFLESEKESVKVPFSSIIQANLI | -0.197

Source: the domain aggregation screens of Martell et al. (2025)
